Measurements from the DeepSol protein solubility set.

Assay: soluble on expression in E. coli; label from the status in PepcDB or PDB records

Sequence | soluble on expression in E. coli
MHIHILGICGTFMGGVAMLARQLGHKVTGSDANVYPPMSTMLEAQGIEIIEGFDPVQLEPKPDLVVIGNAMSRGNPCVEYVLNHNLRYTSGPQWLQDFLLHDRWVIAVSGTHGKTTTSSMIAWVLEHCGYQPGFLVGGVLGNFGISARLGESMFFVVEADEYDSAFFDKRSKFVHYHPRTLVMNNLEFDHADIFDNLEAIKRQFHHLVRTVPGNGRILAPKQDEALADVLQRGCWSETEFSGEQGEWQAEKITADGSQFHVLLKGERVGQVNWSLVGDHNVSNALMAIAAARHVGVAPELACEALGLFVNTKRRLELKGEINGVTVYDDFAHHPTAIELTLGGLRNKVGDKKIIAVLEPRSATMKLGVHKETLAASLHSADSVYLYQPSNIPWSVEEVAKQCQQPAQVSANMDEFVAMIAKEAQAGDQILVMSNGGFEGIHGKLLAALQQK | not soluble
ASSNANQAITSENSIKPKGKLQPQMEKYTLTYFNGRGRAEVIRLLFALANVSYEDNRITRDEWKYLKPRTPFGHVPMLNVSGNVLGESHAIELLLGGRFGLLGTNDWEEAKIMAVVLNIDELFQKLIPWTHEKNTTKKAELFRNLSESDVMPFLGRYEKFLKESTTGHIVGNKVSVADLTVFNMLMTLDDEVKLEEYPQLASFVNKIGQMPGIKEWIKKRPKTYF | soluble
MKKILLVLNHSLAGFGSDEQAQLKPSGKKAPLGPGVTLLPFLQKQGAEIVATLYCGDQYYLENEEEVAKKFIGFAKKFHADAVLCGPAMHYPNFGEMAARLACKFNAAGIPAIAAMAEENPAVSHYYQQVPIVKMPKKGGIGLNNSFKQMAQLVVAKANGKETKQLEETSCF | not soluble
MDAAIKKIPYGMTDFERIILENYYYVDKTQYIAKVEKVTSFFFFVRPRRFGKSLFLNMLGLYYDINQKDKFEKIFGNLYIGKHPTPDRNKYLVLTLNFSSVAANMDRLEETFNTYCKIVMDGFAERNAHLLGKEAVEKLHELKTGDALLGSLCQSAQNKGQKIYLILDEYDNFANNILVDYGNKRYRSITHGSGFFRSFLKVVKDYSSSVIERIFLTGVSPVTMDDLTSGFNIADNYSSSPIFNNMMGFNEQEVRTLIDYYKSYRELPHTTDELITIMKPWYDNYCFAMKALKEPSMYNSDMVLYFMNHYMLNEDIPDNMLDANIRTDYNKLRHLIHVDKTFGENASVVQEIVEKGSTTGIIANSFPAEDIIKPENFKSLLYYYGMLTISGMEMGEPILSVPNWAVREQLYGYMADIYKDSADLYLETDKLVDRMKRMAYKGEWENCFTYIADRLNAQSSVRDFIEGEAYVKTFILAYLGLTHYYIARPEYESNKGYADIFLQPRLLQLPDMVYSYCIEVKYAKRDASDTEIEKLLSNAKIQLKQYAASEWIHQDKGTTELKSIALVFQGWKLVRVEEV | not soluble
MSLKLKIADIAMRTGLSSSTVSRVLAGKANTSYRAREKVLACARELGVMDGMASGRMLLNNLVIFAPQRAFDERTDIFYFRVIQSISKALSHYEVRLRYCALDEFDSTPSKFLARMNEAETQAAILLGIDDPHIHDLAADFSKPCVMINCHDRRMRLPTVAPDHKNIGAFASHFLFEMGHRRVMNIMCLRRYTMELRLAGIKEAWERQNQNFKDDRDLLTINSFSAKEAEEKVGAWLDMTEKSMLPTAFLASGDFIAAGIINALKKRNIRVPQDVSVMSIDGFNLAAIEDVPLTAVHVPRDELGTEAVHMLQQRLVRPDATVGALLLYGKLVIRESVREGHHHHHH | not soluble
MKKATMLTYLEEQLEKHLGDYEVGLDWDRKNHTIEVIVRLYAENNEQVAIDDVDGTLSEEEFIEFEDGLLFYNPQKSVVDDEEYLVTIPYEGKKGLRKAVLDGFIHYLKVVLDEGQSDLLDFLSDETAEVFELHWEPADFEAMIKKVAETEKEQWIAYPSY | not soluble
HAIFEREGNNLYCEVPINFTMAALGGEIEVPTLDGRVNLKIPGETQTGKLFRMRGKGVKSVRGGAQGDLLCRVVVETPVGLNEKQKQLLKELQESFGGPTGENN | not soluble
NPYDVVVIGGGPGGYVASIKAAQLGMKTACVEKRGALGGTCLNVGCIPSKALLHATHLYHDAHANFARYGLMGGEGVTMDSAKMQQQKERAVKGLTGGVEYLFKKNKVTYYKGEGSFETAHSIRVNGLDGKQEMLETKKTIIATGSEPTELPFLPFDEKVVLSSTGALALPRVPKTMVVIGGGVIGLELGSVWARLGAEVTVVEFAPRCAPTLDEDVTNALVGALAKNEKMKFMTSTKVVGGTNNGDSVSLEVEGKNGKRETVTCEALLVSVGRRPFTGGLGLDKINVAKNERGFVKIGDHFETSIPDVYAIGDVVDKGPMLAHKAEDEGVACAEILAGKPGHVNYGVIPAVIYTMPEVASVGKSEDELKKEGVAYKVGKFPFNANSRAKAVSTEDGFVKVLVDKATDRILGVHIVCTTAGELIGEACLAMEYGASSEDVGRTCHAHPTMSEALKEACMALFAKTINF | soluble
MGYIEDMRNLVGNHPLILIGSHAIILNEKDEVLLQLRTDFNRWGIIGGALEYNETLEDALKREVFEETGLIIKNPELFRTYSGPDFFQIYPNGDQVHGVLVVYICREFHGELVCDHTESKELRFFSLDELPNNLPPVIEKIITDYLKK | not soluble
MGSDKIHHHHHHLYFLDNQLAQQIVDRTMAIIGHNINVMNSQGVILGSGEPHRIGSTHEGALLAISQNRTVELNSASAASLQGVKPGINLPLHYQGEIIGVIGITGEPEHLKAFGELLKMTAEMIVEQANSLDVAQWRARQQEEFILQLIKPEGRDLNHLKIWAQRLDIDLEMPRVAAVLRISDDAGDELANSQLKTVLHLLETPSRGNLIAMTSMTELVILKPAFLDGKAWSAEAESLRIDRLLKRLPSELNARLKISLGHYFPATMDINRSYQTALETLNFGQQLHPEQSKYLYEDHALLVMLSGLKHDWRGEQLLRPFQRLIDRDKNALLRKTLASYLGHFGDQQACAKALFIHRNTLRYRLDKIAQITKVDIQKLDGLLQLYLGQVLLSRGQDQG | not soluble
MMHIAHSAPNHTVEGLYRAHNVWLTTWLRRRLGCPHSAADLAQDTFVKVLGARDTAQIIEPRAFLTTIAKRVLCNHYRRQDLERAYYQALAELPECAAPSEEERAIILETLVELDQLLDGLPALVKRAFLMSQVDGLSHGQIAAELDISIATVKRHLNKAALRCYFAL | not soluble
MGHHHHHHHHHHSSGHIDDDDKHMVGATVAPSSRRDFTFDLYRALASAAPSQNIFFSPVSISMSLAMLSLGAGSSTKMQILEGLGLNLQKSSEKELHRGFQQLLQELNQPRDGFQLSLGNALFTDLVVDLQDTFVSAMKTLYLADTFPTNFRDSAGAMKQINDYVAKQTKGKIVDLLKNLDSNAVVIMVNYIFFKAKWETSFNHKGTQEQDFYVTSETVVRVPMMSREDQYHYLLDRNLSCRVVGVPYQGNATALFILPSEGKMQQVENGLSEKTLRKWLKMFKKRQLELYLPKFSIEGSYQLEKVLPSLGISNVFTSHADLSGISNHSNIQVSEMVHKAVVEVDESGTRAAAATGTIFTFRSARLNSQRLVFNRPFLMFIVDNNILFLGKVNRP | soluble
MGHHHHHHSHMRKNESYLNQPAPPIPIPTLSLMGGCREHFENHWKGRARWLMPVIPALWEAKAGRSPEVRSSKPAWPTWRNPIFTKNTKISQVLELFLNYQSLICALEKQKRQKGSLAIFCWSFQGGCVSKRPDVPSLKSQKPKRKRITGRKRLSKGSWSLLFSNLGRF | soluble
MSLAPRDLIDIDRIFMEPAVADYPRGREILSRFPNAERIAVPSHWNIPELHGNEGSVEDWVRIKRSTLVLGVKKGLAMRPNGRSAHFIAPSTSNGCAMACAYCYVPRRKGFSNPISLFVNVEAVSAAIARHAAKQGPLPEPDQIDEAAWVYDLGENGDLSVDAMICDTVRDLVGLFRTLPNAKGSFATKAVNRDLLAYDPQGRTRIRFSLMPAPIARVVDVRTAPIRERIAAIDDFVAAGYEVHVNFSPVILYEGWEADWAELFAEIDGSISDAAKAQLKCEIIMLTHNAGLHEVNLGWHPKAEALLWRPDIQETKRSEGGGDNLRYRTGEGHHHHHH | not soluble
MHVIDLSYFVKIYRSKNKHFSVNFLRHLHRAGDLHLSGTTRCIYEDVIMKKCLTLLIATVLSGISLTAYAAQPMSNLDSGQLRPAGTVSATGASNLSDLEDKLAEKAREQGAKGYVINSAGGNDQMLGTATIYKLEHHHHHH | not soluble
MAEVKEKRHEELGLSDEQVLEMFRTMLLARKIDERMWLLNRAGKIPFVISCQGQEAAQVGAAFALDREKDYALPYYRDMGVVLAFGMTAKELMLSGFAKAGDPNSGGRQMPGHFGQKKNRIVTGSSPVTTQVPHAVGIALAGKMEKKDLVTFVTFGEGSSNQGDFHEGANFAGVHKLPVIFMCENNKYAISIPVEKQLACKNVSDRAIGYGMPGYTVDGNDPLAVYKAVKEAADRGRRGEGPTLIETVSYRLTAHSSDDDDRVYRDKEEVEEAKKNDSIVTFAAYLKEVGVLTEESEKQMLDEIMHIVNEATEYAENAPYAAPEDALKHVYAE | not soluble
MAHHHHHHMFYVDACSQNYRMPNSAPVFSQGFPQPNRAPSLVSPNDVQNCTNDGLVNPHQAPLFTVSQQGSVVAASVLPRTVLWTANGMYGVTQMREGPEEGATRFVPSKSPDGTPVSAMQSMFLPPMQQQQQQQQQASNCPLLYILTTVAVPQTYPQTSLQEQKSQHVTPVTHQIISMKGPSVAPSQSIGINTLNPSCITNNSDAMQTCGSGSKVNVNVVCRHFIKSCCNRRKCRFLHTLNEAPLANI | not soluble
MGSDKIHHHHHHMNNIYSDIYEKLSTLQWLMKRHQMFCQAESGPFADTSRGQGRILAMLKIQPEIATKELAYLLGIRQQSLNELLNKMEKNGYVERKPSENDKRVMIVHLTEKGKQVQQPKTDYQNIFNCLLPEELLQMSQYLDRIIEAFQLQNGNALEENNMIDWMAQARERMGDEHFEQLMSMRERAFGHMRPPKDIPGAERFSENYNGYVPDRDGFQPRNFRPDIK | not soluble
MAHHHHHHMSTAKSFPMAQLSTRAQYSRMQREFVQLQRQENPRNINFTTSLKNRHKNRYLDILANEETIYPPVLKAVGAQPGRYPYINGNLIDLDLPHTFVACQAPVPQGVPDFLETLSEKKVDLVVMLTKLREGGVLKAERYWPEEEEDSLSFPESGHDAIKVTRDAEASYEVDAELDIVRRPLVIHVPGKPMHRVLQVQYVGWPDHGVPESAASFDELLSVIKNCVTTSPILVHCSAGIGRTGTLIGAYAALLHIERGILTDSTVYSIVAAMKQKRFGMVQRLEQYAVIYMTVLGRLGVDISGLVSTLNLKA | soluble
MLASAILPVVSFAESDPLDVLLKKLEEKGVITKEEAKEVKKVAKKHPHLKVKIRLQPRIDFGDIYKENNDYKSRSDFYFRRVRLEISKEWKNIPFGKKLKINFTLHSDKGERDYDYKKGEKEHHSFDPKVKYAYADWTFVDEFAVRIGKNKIPYSRVSLTSSSRQLLIERPYVTEDAKKWLGDYDSNQIMFHGKVAGGIFRYMLSIWDGSTIESKNKTGGTVKADTSLGDAYAIRLEFSPPGFVEKKKDDTGIGEKNKGDVISVGLNYAKNSDFDITDKNIKNEEATVWGGDIFGRFHLGPGALVAQAEYVKMKYDKLDLEEKGYYIQAGYLIPTPYGKFEPAARYEHFKQEDKKNDVTKHKKDIITLGFNHYIKGHKIKWGYNVLFIDNKEKDEKDQTVHQIQMQFYF | not soluble
MPNYDATHATSTETIHYVNEDGDQVFEDGGGKLDFTRTVTIDDVTNEVVEYGEWTPVTDDEFAAVTSPDKDGYTPDTSEVAAQKPDMTDGPDGTVKDVEVTVTYTANPAVATITYVDDDENGKTVKTLEHHHHHH | soluble
